± gives the uncertainty stated by the source.
B1: Homeobox protein SIX6, residues 134 to 184; numbered along this chain, O95475 (parent)
chain: CFKERTRHLLREWYLQDPYPNPSKKRELAQATGLTPTQVGNWFKNRRQRDR

Variants of: B1
Assay: abundance fitness (aPCA) (normalised: wild type 0, dead -1); higher = more abundant; growth selection in yeast, the domain comes from the species named
Details: Homo sapiens

| Variant | abundance fitness |
| --- | --- |
| N21F | -0.839 ± 0.071 |
| N21A | -0.222 ± 0.099 |
| N21V | -0.199 ± 0.1 |
| N21L | -0.149 ± 0.072 |
| N21W | -0.817 ± 0.22 |
| N21M | -0.049 ± 0.26 |
| N21G | -0.238 ± 0.1 |
| N21Q | -0.105 ± 0.076 |
| N21E | -0.129 ± 0.2 |
| N21D | 0.218 ± 0.094 |
| N21T | 0.155 ± 0.049 |
| N21Y | -0.725 ± 0.33 |
| N21H | 0.337 ± 0.16 |
| N21C | -0.079 ± 0.073 |
| N21P | -0.505 ± 0.4 |
| N21K | -0.417 ± 0.35 |
| N21I | -0.672 ± 0.47 |
| N21R | -0.437 ± 0.12 |
| N21S | -0.071 ± 0.098 |
| K24D | -0.197 ± 0.068 |
| K24F | -0.984 ± 0.13 |
| K24N | -0.281 ± 0.099 |
| K24P | -0.864 ± 0.08 |
| K24V | -0.13 ± 0.076 |

| Variant | abundance fitness |
| --- | --- |
| K24Q | 0.074 ± 0.054 |
| K24G | -0.374 ± 0.074 |
| K24H | -0.493 ± 0.097 |
| K24T | -0.058 ± 0.048 |
| K24W | -0.556 ± 0.069 |
| K24R | -0.104 ± 0.058 |
| K24I | -0.051 ± 0.091 |
| K24A | -0.009 ± 0.063 |
| K24Y | -0.714 ± 0.069 |
| K24S | -0.192 ± 0.059 |
| K24C | -0.462 ± 0.14 |
| K24M | -0.139 ± 0.084 |
| K24E | -0.188 ± 0.051 |
| L28F | -0.442 ± 0.14 |
| L28H | -0.903 ± 0.1 |
| L28E | -0.808 ± 0.15 |
| L28C | -0.79 ± 0.19 |
| L28M | -0.04 ± 0.075 |
| L28G | -0.883 ± 0.08 |
| L28I | 0.064 ± 0.07 |
| P22A | -0.109 ± 0.071 |
| P22T | -0.076 ± 0.14 |
| P22R | -0.634 ± 0.081 |
| P22W | -0.281 ± 0.15 |

| Variant | abundance fitness |
| --- | --- |
| P22V | -0.682 ± 0.16 |
| P22F | -0.241 ± 0.1 |
| P22L | 0.161 ± 0.076 |
| P22S | 0.015 ± 0.081 |
| P22E | 0.104 ± 0.088 |
| P22Q | -0.352 ± 0.17 |
| P22D | 0.307 ± 0.14 |
| P22C | 0.146 ± 0.19 |
| P22G | 0.087 ± 0.068 |
| P22K | -0.833 ± 0.29 |
| P22H | -0.467 ± 0.11 |
| P22Y | -0.424 ± 0.38 |
| P22I | -0.618 ± 0.36 |
| Y19I | -0.366 ± 0.34 |
| Y19C | -0.469 ± 0.13 |
| Y19R | -0.177 ± 0.049 |
| Y19H | -0.364 ± 0.19 |
| Y19P | -0.673 ± 0.17 |
| Y19A | -0.526 ± 0.091 |
| Y19S | -0.508 ± 0.064 |
| Y19V | -0.625 ± 0.094 |
| Y19N | -0.132 ± 0.085 |
| Y19K | -0.239 ± 0.1 |
| Y19T | -0.088 ± 0.082 |

| Variant | abundance fitness |
| --- | --- |
| Y19E | -0.41 ± 0.06 |
| Y19F | -0.138 ± 0.068 |
| Y19W | 0.052 ± 0.1 |
| Y19G | -0.867 ± 0.097 |
| Y19L | -0.488 ± 0.088 |
| Y19M | -0.312 ± 0.092 |
| Y19Q | -0.414 ± 0.051 |
| S23R | -0.813 ± 0.1 |
| S23H | -0.523 ± 0.2 |
| S23E | 0.186 ± 0.1 |
| S23I | -0.579 ± 0.14 |
| S23Q | -0.028 ± 0.06 |
| S23N | -0.175 ± 0.17 |
| S23M | -0.257 ± 0.1 |
| S23Y | -0.726 ± 0.17 |
| S23G | -0.328 ± 0.088 |
| S23K | -0.529 ± 0.092 |
| S23D | 0.038 ± 0.13 |
| S23T | -0.436 ± 0.14 |
| S23A | 0.012 ± 0.077 |
| S23V | -0.35 ± 0.067 |
| S23C | -0.444 ± 0.15 |
| S23F | -0.272 ± 0.16 |
| S23L | -0.276 ± 0.094 |

| Variant | abundance fitness |
| --- | --- |
| S23W | -0.517 ± 0.14 |
| P18Q | -0.234 ± 0.065 |
| P18S | -0.458 ± 0.07 |
| P18N | -0.696 ± 0.32 |
| P18W | -0.491 ± 0.12 |
| P18T | -0.915 ± 0.27 |
| P18V | -0.822 ± 0.092 |
| R26W | -0.475 ± 0.16 |
| R26V | 0.055 ± 0.048 |
| R26C | 0.055 ± 0.25 |
| R26S | -0.182 ± 0.11 |
| R26F | -0.085 ± 0.062 |
| R26T | -0.429 ± 0.19 |
| R26Y | -0.378 ± 0.26 |
| R26L | 0.039 ± 0.069 |
| R26Q | 0.264 ± 0.18 |
| R26N | 0.069 ± 0.068 |
| R26P | -0.836 ± 0.42 |
| R26H | -0.121 ± 0.068 |
| R26I | -0.382 ± 0.25 |
| R26E | 0.037 ± 0.13 |
| R26K | -0.024 ± 0.082 |
| E27G | -0.805 ± 0.1 |
| E27R | -0.437 ± 0.061 |

| Variant | abundance fitness |
| --- | --- |
| E27W | -0.231 ± 0.083 |
| E27P | -0.845 ± 0.32 |
| E27A | -0.207 ± 0.08 |
| E27S | -0.679 ± 0.14 |
| E27C | -0.441 ± 0.24 |
| E27H | -0.773 ± 0.25 |
| E27T | -0.513 ± 0.12 |
| E27F | -0.318 ± 0.18 |
| E27D | -0.194 ± 0.073 |
| E27L | -0.483 ± 0.1 |
| E27K | -0.71 ± 0.23 |
| E27Q | -0.758 ± 0.39 |
| E27N | -0.683 ± 0.44 |
| E27M | -0.696 ± 0.17 |
| E27V | -0.731 ± 0.12 |
| P20K | -0.797 ± 0.31 |
| P20H | -0.693 ± 0.39 |
| P20C | -0.7 ± 0.34 |
| P20S | -0.724 ± 0.17 |
| P20Y | -0.559 ± 0.37 |
| P20Q | -0.796 ± 0.35 |
| P20V | -0.613 ± 0.079 |
| P20T | -0.927 ± 0.44 |
| P20I | -0.466 ± 0.23 |

| Variant | abundance fitness |
| --- | --- |
| P20R | -1.02 ± 0.14 |
| P20A | -0.816 ± 0.073 |
| P20E | -0.969 ± 0.25 |
| P20W | -1.05 ± 0.16 |
| P20G | -0.887 ± 0.11 |
| P20L | -0.411 ± 0.071 |
| P20M | -0.817 ± 0.067 |
| K25Q | 0.158 ± 0.089 |
| K25D | -0.741 ± 0.17 |
| K25M | -0.126 ± 0.079 |
| K25G | -0.789 ± 0.064 |
| K25I | 0.118 ± 0.1 |
| K25P | -0.648 ± 0.072 |
| K25N | -0.48 ± 0.21 |
| K25W | -0.519 ± 0.11 |
| K25Y | -0.338 ± 0.11 |
| K25H | -0.031 ± 0.27 |
| K25R | -0.098 ± 0.073 |
| K25L | 0.049 ± 0.067 |
| K25T | -0.074 ± 0.074 |
| K25A | -0.334 ± 0.068 |
| K25F | -0.272 ± 0.076 |
| K25S | -0.423 ± 0.055 |

— the Human Domainome abundance scans (Beltran et al. 2025)
